Results as given in the supplement of paper PMC3353916.
± gives the standard deviation of the averaged measurements.

Test system: Sindbis virus TE/5'2J-GFP
Assay: percent infected (GFP+ in RFP+ ISG-expressing cells); higher = more infection (less antiviral activity)
Procedure: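 Confirmatory testing of 87 ISGs. Triplicate wells of BHK/HA-Zeo (control) or BHK/NZAP-Zeo (ZAP) cells were transduced with lentiviruses co-expressing a human ISG plus TagRFP, then infected 48 h later with SINV TE/5'2J-GFP (moi 5). The % GFP+ cells among RFP+ cells was measured by flow cytometry at 8 h post infection. Fluc lentivirus served as control. Three independent experiments.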

[1] = experiment: confirmatory screen 1, BHK/HA-Zeo (control)
[2] = experiment: confirmatory screen 1, BHK/NZAP-Zeo (ZAP)
[3] = experiment: confirmatory screen 2, BHK/HA-Zeo (control)
[4] = experiment: confirmatory screen 2, BHK/NZAP-Zeo (ZAP)
[5] = experiment: confirmatory screen 3, BHK/HA-Zeo (control)
[6] = experiment: confirmatory screen 3, BHK/NZAP-Zeo (ZAP)
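Also: Interferon-defective BHK-21 derivatives, ZAP line overexpressing the rat ZAP N-terminal zinc finger domain fused to Zeocin resistance, GFP scored within live singlet TagRFP+ cells.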

Substance	percent infected [1] [%]	percent infected [2] [%]	percent infected [3] [%]	percent infected [4] [%]	percent infected [5] [%]	percent infected [6] [%]
MEVTTRLTWNDENHLRKLLGNVSLSLLYKSSVHGGSIEDMVERCSRQGCTITMAYIDYNMIVAFMLGNYINLHESSTEPNDSLWFSLQKKNDTTEIETLLLNTAPKIIDEQLVCRLSKTDIFIICRDNKIYLDKMITRNLKLRFYGHRQYLECEVFRVEGIKDNLDDIKRIIKAREHRNRLLADIRDYRPYADLVSEIRILLVGPVGSGKSSFFNSVKSIFHGHVTGQAVVGSDITSITERYRIYSVKDGKNGKSLPFMLCDTMGLDGAEGAGLCMDDIPHILKGCMPDRYQFNSRKPITPEHSTFITSPSLKDRIHCVAYVLDINSIDNLYSKMLAKVKQVHKEVLNCGIAYVALLTKVDDCSEVLQDNFLNMSRSMTSQSRVMNVHKMLGIPISNILMVGNYASDLELDPMKDILILSALRQMLRAADDFLEDLPLEETGAIERALQPCI [IFI44L]	94.86 ± 0.39	67.5 ± 2.4	96.87 ± 0.21	94.83 ± 0.34	83.6 ± 1.6	85.31 ± 0.85
MGILYSEPICQAAYQNDFGQVWRWVKEDSSYANVQDGFNGDTPLICACRRGHVRIVSFLLRRNANVNLKNQKERTCLHYAVKKKFTFIDYLLIILLMPVLLIGYFLMVSKTKQNEALVRMLLDAGVEVNATDCYGCTALHYACEMKNQSLIPLLLEARADPTIKNKHGESSLDIARRLKFSQIELMLRKAL [ANKRD22]	96.94 ± 0.72	78.5 ± 1.2	96.41 ± 0.47	95.57 ± 0.16	93.15 ± 0.2	93.16 ± 0.36
TIMP1	94.88 ± 0.13	66.4 ± 2.3	94.66 ± 0.28	93.37 ± 0.42	90.3 ± 1.8	92.63 ± 0.18
BTN3A3	82.3 ± 4	57.5 ± 0.65	93.48 ± 0.51	95.55 ± 0.27	90.09 ± 0.83	89.4 ± 1.4
MEQHFLGCVKRAWDSAEVAPEPQPPPIVSSEDRGPWPLPLYPVLGEYSLDSCDLGLLSSPCWRLPGVYWQNGLSPGVQSTLEPSTAKPTEFSWPGTQKQQEAPVEEVGQAEEPDRLRLQQLPWSSPLHPWDRQQDTEVCDSGCLLERRHPPALQPWRHLPGFSDCLEWILRVGFAAFSVLWACCSRICGAKQP [C5orf39]	76.7 ± 4.1	9.13 ± 2.2	93.67 ± 0.59	89.88 ± 0.14	75.4 ± 1.5	50.1 ± 3
MALLDVCGAPRGQRPESALPVAGSGRRSDPGHYSFSMRSPELALPRGMQPTEFFQSLGGDGERNVQIEMAHGTTTLAFKFQHGVIAAVDSRASAGSYISALRVNKVIEINPYLLGTMSGCAADCQYWERLLAKECRLYYLRNGERISVSAASKLLSNMMCQYRGMGLSMGSMICGWDKKGPGLYYVDEHGTRLSGNMFSTGSGNTYAYGVMDSGYRPNLSPEEAYDLGRRAIAYATHRDSYSGGVVNMYHMKEDGWVKVESTDVSDLLHQYREANQ [PSMB8]	94.7 ± 1.4	64.8 ± 5.2	95.27 ± 0.2	94.97 ± 0.39	94.16 ± 0.23	94.18 ± 0.46
MNTRNRVVNSGLGASPASRPTRDPQDPSGRQGELSPVEDQREGLEAAPKGPSRESVVHAGQRRTSAYTLIAPNINRRNEIQRIAEQELANLEKWKEQNRAKPVHLVPRRLGGSQSETEVRQKQQLQLMQSKYKQKLKREESVRIKKEAEEAELQKMKAIQREKSNKLEEKKRLQENLRREAFREHQQYKTAEFLSKLNTESPDRSACQSAVCGPQSSTWKLPILPRDHSWARSWAYRDSLKAEENRKLQKMKDEQHQKSELLELKRQQQEQERAKIHQTEHRRVNNAFLDRLQGKSQPGGLEQSGGCWNMNSGNSWGI [EPSTI1]	96.8 ± 1.1	68.2 ± 2.1	96.8 ± 1.1	95.946 ± 0.041	94.88 ± 0.77	94.41 ± 0.1
MAGPERWGPLLLCLLQAAPGRPRLAPPQNVTLLSQNFSVYLTWLPGLGNPQDVTYFVAYQSSPTRRRWREVEECAGTKELLCSMMCLKKQDLYNKFKGRVRTVSPSSKSPWVESEYLDYLFEVEPAPPVLVLTQTEEILSANATYQLPPCMPPLDLKYEVAFWKEGAGNKTLFPVTPHGQPVQITLQPAASEHHCLSARTIYTFSVPKYSKFSKPTCFLLEVPEANWAFLVLPSLLILLLVIAAGGVIWKTLMGNPWFQRAKMPRALDFSGHTHPVATFQPSRPESVNDLFLCPQKELTRGVRPTPRVRAPATQQTRWKKDLAEDEEEEDEEDTEDGVSFQPYIEPPSFLGQEHQAPGHSEAGGVDSGRPRAPLVPSEGSSAWDSSDRSWASTVDSSWDRAGSSGYLAEKGPGQGPGGDGHQESLPPPEFSKDSGFLEELPEDNLSSWATWGTLPPEPNLVPGGPPVSLQTLTFCWESSPEEEEEARESEIEDSDAGSWGAESTQRTEDRGRTLGHYMAR [IL28RA]	11.9 ± 5.4	1.35 ± 0.22	33 ± 1.4	11.4 ± 0.84	21.4 ± 1.5	8.02 ± 0.72
MAVMEMACPGAPGSAVGQQKELPKAKEKTPPLGKKQSSVYKLEAVEKSPVFCGKWEILNDVITKGTAKEGSEAGPAAISIIAQAECENSQEFSPTFSERIFIAGSKQYSQSESLDQIPNNVAHATEGKMARVCWKGKRRSKARKKRKKKSSKSLAHAGVALAKPLPRTPEQESCTIPVQEDESPLGAPYVRNTPQFTKPLKEPGLGQLCFKQLGEGLRPALPRSELHKLISPLQCLNHVWKLHHPQDGGPLPLPTHPFPYSRLPHPFPFHPLQPWKPHPLESFLGKLACVDSQKPLPDPHLSKLACVDSPKPLPGPHLEPSCLSRGAHEKFSVEEYLVHALQGSVSSGQAHSLTSLAKTWAARGSRSREPSPKTEDNEGVLLTEKLKPVDYEYREEVHWATHQLRLGRGSFGEVHRMEDKQTGFQCAVKKVRLEVFRAEELMACAGLTSPRIVPLYGAVREGPWVNIFMELLEGGSLGQLVKEQGCLPEDRALYYLGQALEGLEYLHSRRILHGDVKADNVLLSSDGSHAALCDFGHAVCLQPDGLGKSLLTGDYIPGTETHMAPEVVLGRSCDAKVDVWSSCCMMLHMLNGCHPWTQFFRGPLCLKIASEPPPVREIPPSCAPLTAQAIQEGLRKEPIHRVSAAELGGKVNRALQQVGGLKSPWRGEYKEPRHPPPNQANYHQTLHAQPRELSPRAPGPRPAEETTGRAPKLQPPLPPEPPEPNKSPPLTLSKEESGMWEPLPLSSLEPAPARNPSSPERKATVPEQELQQLEIELFLNSLSQPFSLEEQEQILSCLSIDSLSLSDDSEKNPSKASQSSRDTLSSGVHSWSSQAEARSSSWNMVLARGRPTDTPSYFNGVKVQIQSLNGEHLHIREFHRVKVGDIATGISSQIPAAAFSLVTKDGQPVRYDMEVPDSGIDLQCTLAPDGSFAWSWRVKHGQLENRP [MAP3K14]	96.4 ± 1.2	76.4 ± 1.8	97.1 ± 0.15	92.2 ± 0.5	86.1 ± 1.7	80.9 ± 2.1
MDAPHSKAALDSINELPENILLELFTHVPARQLLLNCRLVCSLWRDLIDLMTLWKRKCLREGFITKDWDQPVADWKIFYFLRSLHRNLLRNPCAEEDMFAWQIDFNGGDRWKVESLPGAHGTDFPDPKVKKYFVTSYEMCLKSQLVDLVAEGYWEELLDTFRPDIVVKDWFAARADCGCTYQLKVQLASADYFVLASFEPPPVTIQQWNNATWTEVSYTFSDYPRGVRYILFQHGGRDTQYWAGWYGPRVTNSSIVVSPKMTRNQASSEAQPGQKHGQEEAAQSPYRAVVQIF [FBXO6]	95.42 ± 0.3	65.4 ± 1.8	94.14 ± 0.54	94.48 ± 0.2	90.9 ± 1.1	91.46 ± 0.7
MLTELEKALNSIIDVYHKYSLIKGNFHAVYRDDLKKLLETECPQYIRKKGADVWFKELDINTDGAVNFQEFLILVIKMGVAAHKKSHEESHKE [S100A8]	80.1 ± 1.9	54.4 ± 3.1	91.3 ± 1.5	92.37 ± 0.69	82.1 ± 1.6	89.4 ± 1
PRIC285	94.6 ± 2.5	53.7 ± 6.2	96.59 ± 0.24	95.01 ± 0.88	83.7 ± 1.5	87.13 ± 0.73
MHLCGGNGLLTQTDPKEQQRQLKKQKNRAAAQRSRQKHTDKADALHQQHESLEKDNLALRKEIQSLQAELAWWSRTLHVHERLCPMDCASCSAPGLLGCWDQAEGLLGPGPQGQHGCREQLELFQTPGSCYPAQPLSPGPQPHDSPSLLQCPLPSLSLGPAVVAEPPVQLSPSPLLFASHTGSSLQGSSSKLSALQPSLTAQTAPPQPLELEHPTRGKLGSSPDNPSSALGLARLQSREHKPALSAATWQGLVVDPSPHPLLAFPLLSSAQVHF [BATF2]	90.1 ± 2.7	63.14 ± 0.42	95.85 ± 0.33	94.92 ± 0.24	93.14 ± 0.36	91.04 ± 0.55
